Source: patent publication US20140341971A1 (LIPOTEK, published 2014)

Target: T1, human DC-SIGN (DC-specific intercellular adhesion molecule 3-grabbing nonintegrin) (human, UniProt Q9NNX6 1-404)
T1 construct: whole, on cells; Target on THP-1 cells transfected with human DC-SIGN and on human moDCs; also called CD209; human DC marker DC-SIGN
T1 sequence (looked up): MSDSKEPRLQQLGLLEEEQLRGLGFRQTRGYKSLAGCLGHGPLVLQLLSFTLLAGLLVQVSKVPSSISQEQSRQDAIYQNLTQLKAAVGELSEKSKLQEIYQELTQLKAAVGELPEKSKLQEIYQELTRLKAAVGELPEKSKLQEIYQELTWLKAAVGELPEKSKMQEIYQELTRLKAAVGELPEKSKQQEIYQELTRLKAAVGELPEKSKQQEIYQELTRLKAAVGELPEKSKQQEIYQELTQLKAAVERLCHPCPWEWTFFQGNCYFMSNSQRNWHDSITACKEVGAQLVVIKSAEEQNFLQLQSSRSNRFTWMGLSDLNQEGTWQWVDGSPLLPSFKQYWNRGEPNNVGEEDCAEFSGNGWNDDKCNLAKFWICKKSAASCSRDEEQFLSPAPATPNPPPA
Experiment: confocal microscopy, fluorescent vaccine on human monocyte-derived DCs
Protocol: FIG. 3: Z-sections through a human monocyte-derived dendritic cell (moDC) incubated with Lipovaxin-MM. […] Cells were placed on coverslips immediately prior to observation under the confocal microscope.

B1: DMS5000 (other)
VH: STEVQLLESGGGLVQPGGSLRLSCAASGFTFDRRAMGWVRQAPGKGLEWVSSIESDGTRTYYADSVKGRFTISRDNSKNTLYLQMNSLRAEDTAVYYCAKHPGSSYVFDYWGQGTLVTVSS
notes: Human VH domain antibody (dAb), made as a secreted protein in E. coli; also called DC-SIGN specific domain antibody (dAb); dAb
Does B1 bind?
Result: binds
